The values below are quoted from earlier work in US10159715B2, “Method for treating diabetes comprising long-acting insulin analogue conjugate and long-acting insulinotropic peptide conjugate” (HANMI PHARM. CO., LTD., priority 2014, dated 2018).

The conditions of data set [1]: in vivo.
Data set [2] concerns type 2 diabetes-induced rodent model.

As for “GLP-1: incretin hormone secreted by L-cells of the ileum and colon; insulinotropic peptide”, the half-life in blood result in data set [1] is “less than 2 minutes”. Moreover, in data set [2], the “growth and differentiation of the beta cells / beta cell mass” value was “increasing the beta cell mass”.
